US20120196760A1, “METHODS AND COMPOSITIONS FOR IDENTIFYING MODULATORS OF ANTI-TETHERIN ACTIVITY TO INHIBIT P[…] VIRUSES” (CHILDRENS HOSPITAL LOS ANGELES, priority 2008, published 2012)

System: HIV-1 VLPs
Experiment: HIV-1 VLP release from cells expressing Tetherin constructs (Western blot, % VLP release)
Format: cell-based
Details: Tetherin expressed alone, no anti-Tetherin; FIG. 9B

B1: full-length human Tetherin: human cellular protein that tethers newly budded HIV particles at the cell surface and restricts virus release (protein)
chain: MASTSYDYCRVPMEDGDKRCKLLLGIGILVLLIIVILGVPLIIFTIKANSEACRDGLRAVMECRNVTHLLQQELTEAQKGFQDVEAQAATCNHTVMALMASLDAEKAQGQKKVEELEGEITTLNHKLQDASAEVERLRRENQVLSVRIADKKYYPSSQDSS
- reduction of release of Virus-Like Particles (VLPs): about 95%
